This note sets out measurements from the RNAGym collection of RNA variant scans (doi:10.1093/molbev/msab373).

The labels stand for the following.
B1: Azoarcus group I ribozyme (parent)
chain: GUGCCUUGCGCCGGGAAACCACGCAAGGGAUGGUGUCAAAUUCGGCGAAACCUAAGCGCCCGCCCGGGCGUAUGGCAACGCCGAGCCAAGCUUCGGCGCCUGCGCCGAUGAAGGUGUAGAGACUAGACGGCACCCACCUAAGGCAAACGCUAUGGUGAAGGCAUAGUCCAGGGAGUGGCGAAAGUCACACAAACCGG

This data set covers variants of B1. In words: reverse-splicing fitness (ratio to wild type); higher = more active; in vitro selection; Mg2+ level not given. An outline of the steps: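 An in vitro group I ribozyme library with randomized positions was T7-transcribed and gel-purified. In triplicate, 10 pmol RNA in EPPS pH 7.5 was reacted with 50 pmoles of a 30-nt RNA substrate for 1 h at 37 °C across several added MgCl2 levels (1–48 mM), then stopped with EDTA. Products were reverse transcribed from a substrate-complementary primer, PCR-amplified and sequenced (HiSeq 4000). Fitness is a variant's read proportion after selection over that before, normalised to wild type.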
Consider GUGCCUUGCGCCGGGAAACCACGCAAGGGAUGGUGUCAAAUUCGGCGAAACCUAAGCGCCCGCCCGGGCGUAUGGCAACGCCGAGCCAAGCUUCGGCGCCUGCGCCGAUGCAGGUGUAGCGACUAGACGGCACCCACCUAAGGCCAACGGUAUGGUGAAGGCAUAGUCAAGGGAGGGGCGAAAGUCACACAAACCGG [A111C A120C A145C C150G C169A U176G], for which the reverse-splicing fitness worked out at 0.00595. On to GUGCCUUGCGCCGGGAAACCACGCAAGGGAUGGUGUCAAAUUCGGCGAAACCUAAGCGCCCGCCCGGGCGUAUGGCAACGCCGAGCCAAGCUUCGGCGCCUGCGCCGAUGCAGGUGUAGCGACUAGACGGCACCCACCUAAGGCCAACGGUAUGGUGAAGGCAUAGUCAAGGGAGCGGCGAAAGUCACACAAACCGG [A111C A120C A145C C150G C169A U176C], for which the reverse-splicing fitness was 0.00793. In the case of GUGCCUUGCGCCGGGAAACCACGCAAGGGAUGGUGUCAAAUUCGGCGAAACCUAAGCGCCCGCCCGGGCGUAUGGCAACGCCGAGCCAAGCUUCGGCGCCUGCGCCGAUGCAGGUGUAGCGACUAGACGGCACCCACCUAAGGCCAACGGUAUGGUGAAGGCAUAGUCAAGGGAGAGGCGAAAGUCACACAAACCGG [A111C A120C A145C C150G C169A U176A] it was 0.0076; in that of GUGCCUUGCGCCGGGAAACCACGCAAGGGAUGGUGUCAAAUUCGGCGAAACCUAAGCGCCCGCCCGGGCGUAUGGCAACGCCGAGCCAAGCUUCGGCGCCUGCGCCGAUGCAGGUGUAGCGACUAGACGGCACCCACCUAAGGCCAACGAUAUGGUGAAGGCAUAGUCGAGGGAGAGGCGAAAGUCACACAAACCGG [A111C A120C A145C C150A C169G U176A], 0.0246. In the case of GUGCCUUGCGCCGGGAAACCACGCAAGGGAUGGUGUCAAAUUCGGCGAAACCUAAGCGCCCGCCCGGGCGUAUGGCAACGCCGAGCCAAGCUUCGGCGCCUGCGCCGAUGCAGGUGUAGCGACUAGACGGCACCCACCUAAGGCCAACGAUAUGGUGAAGGCAUAGUCGAGGGAGCGGCGAAAGUCACACAAACCGG [A111C A120C A145C C150A C169G U176C] it was 0.0146; in that of GUGCCUUGCGCCGGGAAACCACGCAAGGGAUGGUGUCAAAUUCGGCGAAACCUAAGCGCCCGCCCGGGCGUAUGGCAACGCCGAGCCAAGCUUCGGCGCCUGCGCCGAUGCAGGUGUAGCGACUAGACGGCACCCACCUAAGGCCAACGAUAUGGUGAAGGCAUAGUCGAGGGAGGGGCGAAAGUCACACAAACCGG [A111C A120C A145C C150A C169G U176G], 0.007. For GUGCCUUGCGCCGGGAAACCACGCAAGGGAUGGUGUCAAAUUCGGCGAAACCUAAGCGCCCGCCCGGGCGUAUGGCAACGCCGAGCCAAGCUUCGGCGCCUGCGCCGAUGCAGGUGUAGCGACUAGACGGCACCCACCUAAGGCCAACGGUAUGGUGAAGGCAUAGUCGAGGGAGCGGCGAAAGUCACACAAACCGG [A111C A120C A145C C150G C169G U176C] the value was 0.00939. With GUGCCUUGCGCCGGGAAACCACGCAAGGGAUGGUGUCAAAUUCGGCGAAACCUAAGCGCCCGCCCGGGCGUAUGGCAACGCCGAGCCAAGCUUCGGCGCCUGCGCCGAUGCAGGUGUAGCGACUAGACGGCACCCACCUAAGGCCAACGGUAUGGUGAAGGCAUAGUCGAGGGAGAGGCGAAAGUCACACAAACCGG [A111C A120C A145C C150G C169G U176A], the reverse-splicing fitness was 0.00861. In the case of GUGCCUUGCGCCGGGAAACCACGCAAGGGAUGGUGUCAAAUUCGGCGAAACCUAAGCGCCCGCCCGGGCGUAUGGCAACGCCGAGCCAAGCUUCGGCGCCUGCGCCGAUGCAGGUGUAGCGACUAGACGGCACCCACCUAAGGCCAACGGUAUGGUGAAGGCAUAGUCGAGGGAGGGGCGAAAGUCACACAAACCGG [A111C A120C A145C C150G C169G U176G] it was 0.00522; in that of GUGCCUUGCGCCGGGAAACCACGCAAGGGAUGGUGUCAAAUUCGGCGAAACCUAAGCGCCCGCCCGGGCGUAUGGCAACGCCGAGCCAAGCUUCGGCGCCUGCGCCGAUGCAGGUGUAGCGACUAGACGGCACCCACCUAAGGCAAACGCUAUGGUGAAGGCAUAGUCCAGGGAGUGGCGAAAGUCACACAAACCGG [A111C A120C], 0.576; in that of GUGCCUUGCGCCGGGAAACCACGCAAGGGAUGGUGUCAAAUUCGGCGAAACCUAAGCGCCCGCCCGGGCGUAUGGCAACGCCGAGCCAAGCUUCGGCGCCUGCGCCGAUGCAGGUGUAGCGACUAGACGGCACCCACCUAAGGCCAACGGUAUGGUGAAGGCAUAGUCGAGGGAGUGGCGAAAGUCACACAAACCGG [A111C A120C A145C C150G C169G], 0.0064.

On to GUGCCUUGCGCCGGGAAACCACGCAAGGGAUGGUGUCAAAUUCGGCGAAACCUAAGCGCCCGCCCGGGCGUAUGGCAACGCCGAGCCAAGCUUCGGCGCCUGCGCCGAUGCAGGUGUAGCGACUAGACGGCACCCACCUAAGGCCAACGGUAUGGUGAAGGCAUAGUCAAGGGAGUGGCGAAAGUCACACAAACCGG [A111C A120C A145C C150G C169A], for which the reverse-splicing fitness was found to be 0.00813. For the variant GUGCCUUGCGCCGGGAAACCACGCAAGGGAUGGUGUCAAAUUCGGCGAAACCUAAGCGCCCGCCCGGGCGUAUGGCAACGCCGAGCCAAGCUUCGGCGCCUGCGCCGAUGCAGGUGUAGAGACUAGACGGCACCCACCUAAGGCAAACGCUAUGGUGAAGGCAUAGUCCAGGGAGUGGCGAAAGUCACACAAACCGG [A111C], the reverse-splicing fitness stood at 0.872. For GUGCCUUGCGCCGGGAAACCACGCAAGGGAUGGUGUCAAAUUCGGCGAAACCUAAGCGCCCGCCCGGGCGUAUGGCAACGCUGAGCCAAGCUUCGGCGCCUGCGCCGAUGAAGGUGUAGAGACUAGACGGCACCCACCUAAGGCAAACGCUAUGGUGAAGGCAUAGUCCAGGGAGGGGCGAAAGUCACACAAACCGG [C82U U176G] the value was 0.126; for GUGCCUUGCGCCGGGAAACCACGCAAGGGAUGGUGUCAAAUUCGGCGAAACCUAAGCGCCCGCCCGGGCGUAUGGCAACGCUGAGCCAAGCUUCGGCGCCUGCGCCGAUGAAGGUGUAGAGACUAGACGGCACCCACCUAAGGCAAACGCUAUGGUGAAGGCAUAGUCCAGGGAGCGGCGAAAGUCACACAAACCGG [C82U U176C], 0.476.
